Assays:
[1] = target: CHR-derived peptide C34 of HIV-1 92RW020 gp41 with the N126K mutation (HIV-1 92RW020); assay: circular dichroism spectroscopy
[2] = target: CHR-derived peptide C34 of HIV-1 92RW020 gp41 with the N126K mutation (HIV-1 92RW020); assay: ITC
[3] = target: CHR-derived peptide C34 of HIV-1 92RW020 gp41 (HIV-1 92RW020); assay: ITC
[4] = target: CHR-derived peptide C34 of HIV-1 JRFL gp41 with the N126K mutation (HIV-1 JRFL); assay: circular dichroism spectroscopy
[5] = target: CHR-derived peptide C34 of HIV-1 JRFL gp41 (HIV-1 JRFL); assay: ITC
[6] = target: CHR-derived peptide C34 of HIV-1 JRFL gp41 with the N126K mutation (HIV-1 JRFL); assay: ITC
[7] = target: CHR-derived peptide C34 of HIV-1 NL4-3 gp41 with the N126K mutation (HIV-1 NL4-3); assay: circular dichroism spectroscopy
[8] = target: CHR-derived peptide C34 of HIV-1 NL4-3 gp41 with the N126K mutation (HIV-1 NL4-3); assay: ITC

## NHR-derived peptide N36 of HIV-1 92RW020 gp41
[1]
  Tm of the complex: 62.7 °C
[2]
  Ka: 1.3e+06 M⁻¹
  dH: -55 kcal/mol
  stoichiometry N: 1 Site
[3]
  Ka: 940000 M⁻¹
  dH: -49 kcal/mol
  stoichiometry N: 1.4 Site

## NHR-derived peptide N36 of HIV-1 JRFL gp41
[4]
  Tm of the complex: 62.7 °C
[5]
  Ka: 430000 M⁻¹
  dH: -44 kcal/mol
  stoichiometry N: 1.3 Site
[6]
  Ka: 1.2e+06 M⁻¹
  dH: -35 kcal/mol
  stoichiometry N: 1.4 Site

## NHR-derived peptide N36 of HIV-1 NL4-3 gp41 (from UniProt P04578 546-581)
[7]
  Tm of the complex: 68.5 °C
[8]
  Ka: 1.9e+06 M⁻¹
  dH: -38 kcal/mol
  stoichiometry N: 1.2 Site

From PMC7150849
